According to patent US20220048993A1 (published 2022):

Assays:
[1] = target: T1, recombinant cynomolgus E11 protein (cynomolgus monkey); test: SPR, mIgG2a captured, monovalent
T1 chain: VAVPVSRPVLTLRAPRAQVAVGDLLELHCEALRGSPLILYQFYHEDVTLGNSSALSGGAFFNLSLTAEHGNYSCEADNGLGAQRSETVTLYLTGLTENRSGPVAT

[2] = target: T1, recombinant cynomolgus E11 protein; test: SPR, mIgG2a captured, monovalent
[3] = target: T2, cynomolgus monkey FcRH5, full-length (cynomolgus monkey); test: FACS, SVT2 cells, TDB 3 µg/ml
T2 construct: also called cyno FcRH5; Cynomolgus FcRH5
T2 chain: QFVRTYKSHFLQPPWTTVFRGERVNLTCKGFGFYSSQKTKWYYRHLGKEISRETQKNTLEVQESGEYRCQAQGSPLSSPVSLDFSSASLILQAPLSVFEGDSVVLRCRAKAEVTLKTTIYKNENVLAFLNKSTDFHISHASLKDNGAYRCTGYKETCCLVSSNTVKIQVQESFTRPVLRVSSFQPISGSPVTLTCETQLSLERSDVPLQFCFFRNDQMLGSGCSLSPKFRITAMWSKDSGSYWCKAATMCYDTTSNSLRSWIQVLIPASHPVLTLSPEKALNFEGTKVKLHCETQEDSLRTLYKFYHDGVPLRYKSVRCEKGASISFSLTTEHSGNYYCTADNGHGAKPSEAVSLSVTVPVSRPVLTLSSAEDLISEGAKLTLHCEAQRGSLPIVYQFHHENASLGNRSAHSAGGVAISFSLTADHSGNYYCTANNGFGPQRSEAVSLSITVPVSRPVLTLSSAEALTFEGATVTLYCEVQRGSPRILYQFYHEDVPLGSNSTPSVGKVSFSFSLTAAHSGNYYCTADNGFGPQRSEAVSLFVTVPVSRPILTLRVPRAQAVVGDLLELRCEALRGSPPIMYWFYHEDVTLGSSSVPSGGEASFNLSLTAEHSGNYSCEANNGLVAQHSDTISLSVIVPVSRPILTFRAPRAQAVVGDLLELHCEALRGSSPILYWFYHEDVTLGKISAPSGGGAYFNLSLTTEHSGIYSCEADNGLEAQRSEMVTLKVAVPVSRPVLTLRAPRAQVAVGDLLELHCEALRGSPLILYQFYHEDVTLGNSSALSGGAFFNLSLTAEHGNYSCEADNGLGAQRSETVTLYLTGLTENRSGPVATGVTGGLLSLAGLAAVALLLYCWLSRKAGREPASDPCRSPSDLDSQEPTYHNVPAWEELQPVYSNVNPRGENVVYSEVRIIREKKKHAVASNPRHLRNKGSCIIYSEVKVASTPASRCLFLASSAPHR
Procedure: Human FcRH5, cyno FcRH5, human FcRH1, FcRH2, FcRH3, and FcRH4 transfected mouse SVT2 cells were used to test binding and cross-reactivity of FcRH5 TDBs. The method was carried out as follows. Cultured SVT2 cells were lifted using non-enzyme cell dissociation buffer (Sigma, #C5914). 1×10⁵ cells were suspended in 100 μL and incubated with FcRH5 TDBs at 3 μg/ml. Cells were then washed with FACS buffer (PBS, 1% BSA, 2 mM EDTA) and incubated with goat-anti-human Fc PE (Jackson Immunoresearch, #109-116-170) at a 1:100 dilution. Cells were washed twice with FACS buffer before flow cytometry analysis was carried out on a FACSCalibur.

[4] = target: T3, soluble cynomolgus FcRH5 protein fragment (cynomolgus monkey); test: SPR, hIgG capture, 1:1 model
T3 chain: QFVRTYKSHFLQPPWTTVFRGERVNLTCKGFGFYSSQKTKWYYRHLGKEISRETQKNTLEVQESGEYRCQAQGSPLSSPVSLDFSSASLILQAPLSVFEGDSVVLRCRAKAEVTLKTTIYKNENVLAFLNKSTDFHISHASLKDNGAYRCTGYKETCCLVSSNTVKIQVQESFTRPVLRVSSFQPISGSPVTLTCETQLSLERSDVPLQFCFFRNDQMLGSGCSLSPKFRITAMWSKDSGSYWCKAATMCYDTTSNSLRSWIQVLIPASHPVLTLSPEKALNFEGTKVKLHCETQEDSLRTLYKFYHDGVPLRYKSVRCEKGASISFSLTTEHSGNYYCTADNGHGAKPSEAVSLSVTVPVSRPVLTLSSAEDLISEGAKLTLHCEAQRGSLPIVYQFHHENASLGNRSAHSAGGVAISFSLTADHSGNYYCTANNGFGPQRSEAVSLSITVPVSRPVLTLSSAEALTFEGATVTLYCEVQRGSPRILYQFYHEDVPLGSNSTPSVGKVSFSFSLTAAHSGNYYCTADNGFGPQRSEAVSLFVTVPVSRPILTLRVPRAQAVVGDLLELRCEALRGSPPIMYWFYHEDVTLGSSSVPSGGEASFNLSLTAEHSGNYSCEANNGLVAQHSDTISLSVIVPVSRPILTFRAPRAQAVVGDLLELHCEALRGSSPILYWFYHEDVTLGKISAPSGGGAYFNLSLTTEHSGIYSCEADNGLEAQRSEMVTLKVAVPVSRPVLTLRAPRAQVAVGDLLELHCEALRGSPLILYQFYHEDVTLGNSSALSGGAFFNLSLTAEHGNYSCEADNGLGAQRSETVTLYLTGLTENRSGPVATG

[5] = target: T2, cynomolgus monkey FcRH5, full-length; test: flow cytometry, SVT2-cyno FcRH5 cells
[6] = target: T3, soluble cynomolgus FcRH5 protein …; test: BIACORE, hIgG capture, 1:1 model, monovalent
[7] = target: T3, soluble cynomolgus FcRH5 protein …; test: BIACORE (FIG. 15)
human FcRH5, full-length = target: T4, human FcRH5, full-length (human, UniProt Q96RD9 16-977); test: cell-based or functional assay
T4 sequence: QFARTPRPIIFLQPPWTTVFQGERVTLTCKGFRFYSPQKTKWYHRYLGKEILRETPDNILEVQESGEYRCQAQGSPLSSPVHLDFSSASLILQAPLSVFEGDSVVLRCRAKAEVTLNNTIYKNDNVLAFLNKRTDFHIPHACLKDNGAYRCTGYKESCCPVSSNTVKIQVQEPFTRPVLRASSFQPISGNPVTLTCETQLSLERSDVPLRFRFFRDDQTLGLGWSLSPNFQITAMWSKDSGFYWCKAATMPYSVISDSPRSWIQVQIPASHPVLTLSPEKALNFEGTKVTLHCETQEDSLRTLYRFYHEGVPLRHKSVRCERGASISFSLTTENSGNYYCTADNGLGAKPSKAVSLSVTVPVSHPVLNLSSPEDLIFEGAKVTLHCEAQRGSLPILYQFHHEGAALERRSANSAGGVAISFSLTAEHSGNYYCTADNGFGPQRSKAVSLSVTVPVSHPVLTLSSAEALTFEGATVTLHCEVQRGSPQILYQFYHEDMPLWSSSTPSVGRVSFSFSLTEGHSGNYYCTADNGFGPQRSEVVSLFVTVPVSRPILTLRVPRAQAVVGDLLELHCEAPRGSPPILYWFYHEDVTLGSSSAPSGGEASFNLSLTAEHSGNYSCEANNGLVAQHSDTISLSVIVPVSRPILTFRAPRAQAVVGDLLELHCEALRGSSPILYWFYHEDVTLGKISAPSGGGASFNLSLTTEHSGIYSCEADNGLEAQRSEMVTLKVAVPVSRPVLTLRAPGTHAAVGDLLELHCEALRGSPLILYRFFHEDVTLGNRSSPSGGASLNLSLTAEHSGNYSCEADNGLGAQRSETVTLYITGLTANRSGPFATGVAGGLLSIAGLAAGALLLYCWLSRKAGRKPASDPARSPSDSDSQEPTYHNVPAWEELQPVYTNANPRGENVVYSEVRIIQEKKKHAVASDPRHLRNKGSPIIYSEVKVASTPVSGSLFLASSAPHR

B1: 17B1 (antibody, mouse IgG2a, V domains shown)
VH: QVQLQQSGPELVRPGVSVKISCKGSGYTFTHYAMHWVKQSHTKSLEWIGMISSSSGNTNFNQKFMDKATMTVDKSSTTAYLELARLTFGDSAIYYCARWSYYALFDYWGQGTTVTVSS
VL: ENVLTQSPAIMSASPGEKVTMTCSADSSVDYIHWYQQKSNTSPKLWIYDTSKLASGVPGRFSGSGSGNSYSLTISSMEAEDFATYYCFQGSGYPLTFGSGTKLELK
notes: mouse mAb, Campaign C; recombinant murine IgG2a for BIACORE
Kd [1]: 27 nM

B2: 15G8 (antibody, mouse IgG2a, V domains shown)
VH: EVQLQQSGPELVKPGASVKMSCKASGYTFTNYVIHWMKQKPGQGLEWIGYISPYNDYTKYNEKFEGKATLTSDKSSNTAYMELSSLTSEDSAVYYCARRDYYGSSDYWGQGTTLTVSS
VL: QIVLTQSPAIMSASPGEKVTMTCSASSSVDYMHWYQQKSGTSPKKWIYDTSKLASGVPARFSGSGSGTSYSLTIGSMEAEDAATYYCQQWSSNPPTFGGGTKLEIK
notes: mouse mAb, Campaign C; recombinant murine IgG2a for BIACORE; also called mAb 15G8
Kd [1]: 9.1 nM | KD difference between human and cynomolgus E11 domains [2]: ~20 fold

B3: 1G7.v1.4/38E4.v1 TDB (bispecific antibody, V domains shown)
VH 1: EVQLVESGPGLVKPSETLSLTCTVSGFSLTRFGVHWVRQPPGKGLEWLGVIWRGGSTDYNAAFMSRLTISKDNSKNQVSLKLSSVTAADTAVYYCSNHYYGSSDYALDNWGQGTLVTVSS
VL 1: DIQMTQSPSSLSASVGDRVTITCKASQDVRNLVVWFQQKPGKAPKLLIYSGSYRYSGVPSRFSGSGSGTDFTLTISSLQPEDFATYYCQQHYSPPYTFGQGTKVEIK
VH 2: EVQLVQSGAEVKKPGASVKVSCKASGFTFTSYYIHWVRQAPGQGLEWIGWIYPENDNTKYNEKFKDRVTITADTSTSTAYLELSSLRSEDTAVYYCARDGYSRYYFDYWGQGTLVTVSS
VL 2: DIVMTQSPDSLAVSLGERATINCKSSQSLLNSRTRKNYLAWYQQKPGQSPKLLIYWTSTRKSGVPDRFSGSGSGTDFTLTISSLQAEDVAVYYCKQSFILRTFGQGTKVEIK
notes: knob-into-hole full-length TDB; also called 1G7.v1.4 TDB
binding result [3]: binds | Kd [4]: 6.3 nM | koff [4]: 0.0008 s⁻¹ | kon [4]: 100000 M⁻¹ s⁻¹

B4: hu1G7.v85 (hIgG1) (antibody, V domains shown)
VH: EVQLVESGPGLVKPSETLSLTCTVSGFSLTRFGVHWVRQPPGKGLEWLGVIWRGGSTDYNAAFVSRLTISKDNSKNQVSLKLSSVTAADTAVYYCSNHYYGSSDYALDNWGQGTLVTVSS
VL: DIQMTQSPSSLSASVGDRVTITCKASQDVRNLVVWFQQKPGKAPKLLIYSGSYRYSGVPSRFSGSGSGTDFTLTISSLQPEDFATYYCQQHYSPPYTFGQGTKVEIK
notes: bivalent human IgG1; also called hu1G7.v1.4.M64V
Kd [4]: 7.2 nM | koff [4]: 0.001 s⁻¹ | kon [4]: 100000 M⁻¹ s⁻¹

B5: 1G7.v85/38E4.v1 TDB (bispecific antibody, V domains shown)
VH 1: EVQLVESGPGLVKPSETLSLTCTVSGFSLTRFGVHWVRQPPGKGLEWLGVIWRGGSTDYNAAFVSRLTISKDNSKNQVSLKLSSVTAADTAVYYCSNHYYGSSDYALDNWGQGTLVTVSS
VL 1: DIQMTQSPSSLSASVGDRVTITCKASQDVRNLVVWFQQKPGKAPKLLIYSGSYRYSGVPSRFSGSGSGTDFTLTISSLQPEDFATYYCQQHYSPPYTFGQGTKVEIK
VH 2: EVQLVQSGAEVKKPGASVKVSCKASGFTFTSYYIHWVRQAPGQGLEWIGWIYPENDNTKYNEKFKDRVTITADTSTSTAYLELSSLRSEDTAVYYCARDGYSRYYFDYWGQGTLVTVSS
VL 2: DIVMTQSPDSLAVSLGERATINCKSSQSLLNSRTRKNYLAWYQQKPGQSPKLLIYWTSTRKSGVPDRFSGSGSGTDFTLTISSLQAEDVAVYYCKQSFILRTFGQGTKVEIK
notes: knob-into-hole full-length TDB; also called 1G7.v85 TDB; FcRH5 TDB
binding result [5]: binds | Kd [6]: 6.76 nM | Kd [7]: 7.8 nM | Kd [4]: 6.8 nM | koff [4]: 0.0008 s⁻¹ | kon [4]: 100000 M⁻¹ s⁻¹ | killing of MOLP-2 cells, EC50 (human FcRH5, full-length): 0.058 nM | killing of SVT2-FcRH5 cells, IC50, in DMSO (human FcRH5, full-length): 0.006 nM | killing of SVT2-FcRH5 cells, IC50, in buffer (human FcRH5, full-length): 0.007 nM | killing of SVT2-FcRH5 cells, IC50, with 0.1 µM dexamethasone (human FcRH5, full-length): 0.016 nM | killing of SVT2-FcRH5 cells, IC50, with 1 µM dexamethasone (human FcRH5, full-length): 0.025 nM | killing of human bone marrow plasma cells, EC50 (human FcRH5, full-length): 0.085 to 0.18 nM

B6: hu1G7.v1.4 (hIgG1) (antibody, V domains shown)
VH: EVQLVESGPGLVKPSETLSLTCTVSGFSLTRFGVHWVRQPPGKGLEWLGVIWRGGSTDYNAAFMSRLTISKDNSKNQVSLKLSSVTAADTAVYYCSNHYYGSSDYALDNWGQGTLVTVSS
VL: DIQMTQSPSSLSASVGDRVTITCKASQDVRNLVVWFQQKPGKAPKLLIYSGSYRYSGVPSRFSGSGSGTDFTLTISSLQPEDFATYYCQQHYSPPYTFGQGTKVEIK
notes: human IgG1
Kd [4]: 7.7 nM | koff [4]: 0.001 s⁻¹ | kon [4]: 100000 M⁻¹ s⁻¹

B7: hu1G7.v93/38E4.v1 TDB (bispecific antibody, V domains shown)
VH 1: EVQLVESGPGLVKPSETLSLTCTVSGFSTTRFGVHWVRQPPGKGLEWLGVIWRGGSTDYNAAFVSRLTISKDNSKNQVSLKLSSVTAADTAVYYCSNHYYGSPDYALDNWGQGTLVTVSS
VL 1: DIQMTQSPSSLSASVGDRVTITCKASQDVSNLVVWFQQKPGKAPKLLIYSGSYRYSGVPSRFSGSGSGTDFTLTISSLQPEDFATYYCQQHYSPPYTFGQGTKVEIK
VH 2: EVQLVQSGAEVKKPGASVKVSCKASGFTFTSYYIHWVRQAPGQGLEWIGWIYPENDNTKYNEKFKDRVTITADTSTSTAYLELSSLRSEDTAVYYCARDGYSRYYFDYWGQGTLVTVSS
VL 2: DIVMTQSPDSLAVSLGERATINCKSSQSLLNSRTRKNYLAWYQQKPGQSPKLLIYWTSTRKSGVPDRFSGSGSGTDFTLTISSLQAEDVAVYYCKQSFILRTFGQGTKVEIK
notes: knob-into-hole full-length TDB; also called 1G7.v93 TDB
Kd [7]: 8.1 nM
